From paper PMC3987992 come the findings set out here.

What all share (assay): BLI
Test [1] deals with the same heavy chain paired with four different light chains.
Test [2] deals with four VH/VL combinations (the same germline light chain paired with three different heavy chains).
The target of a further test is CR9114 Fab (human).
Test [3] concerns the target a panel of eight affinity-matured monoclonal antibodies against the same HIV-1 gp120 antigen but with different epitopes.
A further test has as its target PGT135 Fab (human).

B1: recombinant Protein M TD, residues 74-468 (domain or fragment)
chain: SLSLNDGSYQSEIDLSGGANFREKFRNFANELSEAITNSPKGLDRPVPKTEISGLIKTGDNFITPSFKAGYYDHVASDGSLLSYYQSTEYFNNRVLMPILQTTNGTLMANNRGYDDVFRQVPSFSGWSNTKATTVSTSNNLTYDKWTYFAAKGSPLYDSYPNHFFEDVKTLAIDAKDISALKTTIDSEKPTYLIIRGLSGNGSQLNELQLPESVKKVSLYGDYTGVNVAKQIFANVVELEFYSTSKANSFGFNPLVLGSKTNVIYDLFASKPFTHIDLTQVTLQNSDNSAIDANKLKQAVGDIYNYRRFERQFQGYFAGGYIDKYLVKNVNTNKDSDDDLVYRSLKELNLHLEEAYREGDNTYYRVNENYYPGASIYENERASRDSEFQNEILKR
As for B1, the Kd is 1.8 to 2.3 nM in test [1]; 2.1 to 4.8 nM in test [2]; 1.9 nM with CR9114 Fab (human); 0.7 to 3.8 nM in test [3]; 3.7 nM in the test with PGT135 Fab (human).
